According to US20250312473A1, “B7H3 ANTIBODY DRUG CONJUGATES” (BEONE MEDICINES I GMBH, priority 2022, published 2025):

Molecular target: T1, ECD of human 4Ig-B7H3 (Homo sapiens, UniProt Q5ZPR3)
T1 construct: ECD of human 4Ig-B7H3 (Sinobiological, Cat: 11188-H08H); purchased Sinobiological 11188-H08H
T1 sequence (Q5ZPR3 29-466 limits assumed): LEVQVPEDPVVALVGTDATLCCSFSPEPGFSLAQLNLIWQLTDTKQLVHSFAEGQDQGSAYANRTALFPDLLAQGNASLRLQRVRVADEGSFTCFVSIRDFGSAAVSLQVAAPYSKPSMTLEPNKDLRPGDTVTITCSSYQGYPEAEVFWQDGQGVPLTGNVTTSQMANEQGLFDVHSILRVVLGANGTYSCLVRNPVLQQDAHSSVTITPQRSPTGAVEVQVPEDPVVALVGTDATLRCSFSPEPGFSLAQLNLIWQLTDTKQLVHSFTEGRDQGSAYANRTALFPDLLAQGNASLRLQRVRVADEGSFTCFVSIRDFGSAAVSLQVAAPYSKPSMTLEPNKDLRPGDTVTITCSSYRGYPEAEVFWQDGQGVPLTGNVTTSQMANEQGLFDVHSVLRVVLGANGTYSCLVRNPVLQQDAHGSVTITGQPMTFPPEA
Assay: SPR affinity determination
Assay type: binding
Text: For affinity determination, antibodies were captured by anti-human Fc surface, and used in an affinity assay based on surface plasmon resonance (SPR) technology. The results of SPR-determined binding profiles of humanized antibodies to ECD of human 4Ig-B7H3 (Sinobiological, Cat: 11188-H08H) were summarized in Table 20.

B1: BGA-4348: "1^st version of humanized antibody BGA-4348", CDR-grafted from BGA-3295, human IgG1 variant format (antibody)
heavy: QIQLVQSGAEVKKPGSSVKVSCKASGYTFTNYDINWVRQAPGQGLEWMGWIYPGDGSAYYNEKFKGRATITADKSTSTAYMELSSLRSEDTAVYYCARWGYGGVPFAYWGQGTLVTVSSASTKGPSVFPLAPSSKSTSGGTAALGCLVKDYFPEPVTVSWNSGALTSGVHTFPAVLQSSGLYSLSSVVTVPSSSLGTQTYICNVNHKPSNTKVDKKVEPKSCDKTHTCPPCPAPPAAGPSVFLFPPKPKDTLMISRTPEVTCVVVDVSHEDPEVKFNWYVDGVEVHNAKTKPREEQYNSTYRVVSVLTVLHQDWLNGKEYKCKVSNKALAAPIEKTISKAKGQPREPQVYTLPPSRDELTKNQVSLTCLVKGFYPSDIAVEWESNGQPENNYKTTPPVLDSDGSFFLYSKLTVDKSRWQQGNVFSCSVMHEALHNHYTQKSLSLSPGK
light: DIVMTQSPDSLAVSLGERATINCKSSQSLLNDINQKNYLAWYQQKPGQSPKLLVYFASTGVSGVPDRFSGSGSGTDFTLTISSLQAEDVAVYYCQQYYSFPWTFGGGTKVEIK
modifications: left off: a dimerising Fc or GST
notes: "1st version of humanized antibody BGA-4348", CDR-grafted from BGA-3295, human IgG1 variant format
For B1, the “koff” value (Test 1) was 1.04e-05 s⁻¹, the “kon” value (Test 1) was 31500 M⁻¹ s⁻¹ and the “koff” value (Test 2) was 0.000227 s⁻¹. The “kon” value (Test 2) was 369000 M⁻¹ s⁻¹ and the Kd (read-out: dissociation constants) was 0.6 nM.
